In the assay the target is C-phycocyanin, Q54715;Q54714. Nature of the assay: SPR. The settings on record: chain shown with the change, 2 µM analyte, 20 µl/min, 25°C, CPC-coated chip, read off a plot.

B1: GST-fused PPC2 domain of metalloprotease E495 F5A (protein)
chain: GWTRATQNLDAGYSSLDISMAGGSGDADLYVNFGSASSTSSYECRPYKNGNVETCTIENPQAGTWYIDLQG
With B1, the response (parent: est. 53) worked out at 35 RU.

B2: GST-fused PPC1 domain of metalloprotease E495 F5A (protein)
chain: EQLFATLDVPAGASNLVFNTNGGSGDADLYVRFGSKPTLSTYDCNSTTSTSTESCSIGSAQAGTYYVMVEA
For the molecule B2, under “parent: est. 57”, the response came to 33 RU.

The values are drawn from PMC3327674, “Structural and Functional Characterization of Mature Forms of Metalloprotease E495 from Arctic Sea-Ice Bacterium Pseudoalteromonas sp. SM495” (PLoS ONE, 2012).
